Assay results taken from patent publication US20220064250A1 (AKSTON BIOSCIENCES, published 2022).
Where a chain is given by its changes, count along the chain named. Blank lines part the entries; values can stand above or below the binder they belong to.

How the values were obtained:
[1] = molecular target: T1, human insulin receptor on human IM-9 cells (human, UniProt P06213 28-1382); test: IM-9 cells, competition with biotinylated RHI, flow cytometry, 4 C
T1 construct: whole, on cells; Endogenous receptor on IM-9 cells; assay run at 4 C; also called IR
Protocol: (§1) 40 μL of an IM-9 cell suspension (8×10^6 cells/mL) was then added to each well by multichannel pipette, mixed again gently and incubated on ice for 30 min to allow competitive binding on the insulin receptor on IM-9 cells. Cells were then washed twice with 275 μL of ice-cold FACS wash buffer (HBSS/2 mM EDTA/0.1% Na-azide+0.5% horse serum) by centrifuging the V-bottom plate at 3000 rpm for 3 min and aspirating the supernatant. Cells were then resuspended in 40 μL of FACS staining medium containing 1:100 diluted Streptavidin-PE (Life Technologies) for 20 min on ice. Cells were then washed once with 275 μL of ice-cold FACS buffer and finally fixed with 3% paraformaldehyde for 10 min at room temp. Cells were then washed once with 275 μL of ice-cold FACS buffer and resuspended in 250 μl of FACS buffer for analysis.
The V-bottom plates containing cells were then analyzed on a Guava 8-HT flow cytometer (Millipore). Biotinylated-RHI binding to insulin receptor was quantitated by the median fluorescence intensity (MFI) of the cells on the FACS FL-2 channel for each concentration of the test compound. […] The % inhibition by test compounds of biotinylated-RHI binding on IM-9 cells was plotted against log concentrations of the test compound, and the resulting IC50 values were calculated using GraphPad Prism (GraphPad Software, La Jolla, Calif.) for the test compounds. […]

[2] = molecular target: T1, human insulin receptor on human IM-9 …; test: IM-9 cells, competition with biotinylated RHI, flow cytometry, 4 C (Table 3, same data as Table 7)
Protocol: as §1
The V-bottom plates containing cells were then analyzed on a Guava 8-HT flow cytometer (Millipore). Biotinylated-RHI binding to insulin receptor was quantitated by the median fluorescence intensity (MFI) of the cells on the FACS FL-2 channel for each concentration of the test compound. Control wells were labeled only with biotinylated-RHI and were used to calculate the percent (%) inhibition resulting from each test compound concentration. The % inhibition by test compounds of biotinylated-RHI binding on IM-9 cells was plotted against log concentrations of the test compound, and the resulting IC50 values were calculated using GraphPad Prism (GraphPad Software, La Jolla, Calif.) for the test compounds. Lower IC50 values of the test compound therefore indicate greater levels of biotinylated-RHI inhibition at lower concentrations indicating stronger binding of the insulin-Fc fusion protein to the insulin receptor. A control compound, such as unlabeled recombinant human insulin (RHI) was also used as an internal standard to generate an RHI IC50 against which a given compound IC50 could be ratioed (IC50(compound)/IC50(RHI)). […]

[3] = molecular target: T1, human insulin receptor on human IM-9 …; test: IM-9 cells, competition with biotinylated RHI, flow cytometry, 4 C; remark: listed apart in the source
Protocol: (§2) Cultures of IM-9 cells were centrifuged at 250×g (˜1000 rpm) for 10 min to pellet the cells. Cells were washed once with HBSS or PBS buffer, resuspended in cold FACS staining medium (HBSS/2 mM EDTA/0.1% Na-azide+4% horse serum) to a concentration of 8×10^6 cells/mL and kept on ice or 4° C. until test solutions were made. The insulin-Fc protein was diluted in FACS buffer in 1:3 serial dilutions as 2× concentrations in 1.2 mL tubes (approx. 60 μL volume of each dilution), and the solutions were kept cold on ice until ready for pipetting.
(§3) Biotinylated-RHI was diluted in FACS staining medium to a concentration of 1.25 μg/mL. 40 μL of the serially diluted test compound and 8 μL of 1.25 μg/mL Biotin-RHI were added into each well of a V bottom microtiter plate, mixed by slow vortexing, and placed on ice. […]
(§4) The V-bottom plates containing cells were then analyzed on a Guava 8-HT flow cytometer (Millipore). Biotinylated-RHI binding to insulin receptor was quantitated by the median fluorescence intensity (MFI) of the cells on the FACS FL-2 channel for each concentration of the test compound. […] The % inhibition by test compounds of biotinylated-RHI binding on IM-9 cells was plotted against log concentrations of the test compound, and the resulting IC50 values were calculated using GraphPad Prism (GraphPad Software, La Jolla, Calif.) for the test compounds.

[4] = molecular target: T1, human insulin receptor on human IM-9 …; test: IM-9 cells, competition with biotinylated RHI, flow cytometry, 4 C (Table 5, same data as Table 9)
Protocol: as §2, §3, §4

T1 sequence (P06213 28-1382): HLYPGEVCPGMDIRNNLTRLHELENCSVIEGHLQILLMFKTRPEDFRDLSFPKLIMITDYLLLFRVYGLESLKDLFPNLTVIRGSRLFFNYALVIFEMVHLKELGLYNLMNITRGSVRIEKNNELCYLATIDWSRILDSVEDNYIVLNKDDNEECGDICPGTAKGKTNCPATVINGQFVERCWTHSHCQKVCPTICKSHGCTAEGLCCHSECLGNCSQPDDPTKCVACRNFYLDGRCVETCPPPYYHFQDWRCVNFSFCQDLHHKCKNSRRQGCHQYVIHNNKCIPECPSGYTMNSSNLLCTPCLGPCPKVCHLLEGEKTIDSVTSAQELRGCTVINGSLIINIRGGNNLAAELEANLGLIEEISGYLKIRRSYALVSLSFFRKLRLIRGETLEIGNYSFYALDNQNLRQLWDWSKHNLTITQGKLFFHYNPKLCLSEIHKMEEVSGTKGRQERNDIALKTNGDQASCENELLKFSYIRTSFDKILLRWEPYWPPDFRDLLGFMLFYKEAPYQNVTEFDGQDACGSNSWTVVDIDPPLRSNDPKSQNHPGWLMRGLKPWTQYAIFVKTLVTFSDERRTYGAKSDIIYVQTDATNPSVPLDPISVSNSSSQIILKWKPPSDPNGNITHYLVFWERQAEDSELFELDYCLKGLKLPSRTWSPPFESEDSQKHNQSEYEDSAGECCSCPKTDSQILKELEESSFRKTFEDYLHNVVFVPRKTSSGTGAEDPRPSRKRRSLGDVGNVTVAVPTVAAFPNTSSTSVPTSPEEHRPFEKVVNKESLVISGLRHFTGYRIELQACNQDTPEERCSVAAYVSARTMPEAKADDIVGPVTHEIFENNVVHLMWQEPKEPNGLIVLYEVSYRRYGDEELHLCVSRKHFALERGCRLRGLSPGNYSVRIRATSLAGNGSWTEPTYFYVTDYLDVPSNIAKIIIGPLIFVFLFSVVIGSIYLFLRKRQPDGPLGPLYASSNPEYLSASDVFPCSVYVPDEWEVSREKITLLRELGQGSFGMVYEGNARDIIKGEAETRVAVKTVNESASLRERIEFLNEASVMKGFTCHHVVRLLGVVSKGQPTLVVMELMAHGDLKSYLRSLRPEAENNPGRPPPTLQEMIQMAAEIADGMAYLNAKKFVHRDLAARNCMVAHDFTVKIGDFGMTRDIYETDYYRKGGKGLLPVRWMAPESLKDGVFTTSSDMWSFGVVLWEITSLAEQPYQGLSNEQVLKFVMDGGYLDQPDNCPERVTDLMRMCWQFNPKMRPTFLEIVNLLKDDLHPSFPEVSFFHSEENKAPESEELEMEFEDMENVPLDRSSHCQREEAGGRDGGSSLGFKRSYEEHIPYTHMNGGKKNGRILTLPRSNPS

IC50 [1]: 28 nM
IC50 [2]: 28 nM
B1: insulin-Fc fusion protein of SEQ ID NO: 41 (insulin polypeptide SEQ ID NO: 16, linker SEQ ID NO: 25, canine IgGB Fc fragment SEQ ID NO: 29) (Fc fusion)
chain: FVNQHLCGSDLVEALALVCGERGFFYTDPTGGGPRRGIVEQCCHSICSLYQLENYCNGGGGAGGGGDCPKCPAPEMLGGPSVFIFPPKPKDTLLIARTPEVTCVVVDLDPEDPEVQISWFVDGKQMQTAKTQPREEQFNGTYRVVSVLPIGHQDWLKGKQFTCKVNNKALPSPIERTISKARGQAHQPSVYVLPPSREELSKNTVSLTCLIKDFFPPDIDVEWQSNGQQEPESKYRTTPPQLDEDGSYFLYSKLSVDKSRWQRGDTFICAVMHEALHNHYTQESLSHSPG
notes: Disulfide-linked homodimer made in HEK293 cells; 93% homodimer; native cNg glycosylation site kept

IC50 [3]: 145 nM
IC50 [4]: 145 nM
B2: insulin-Fc fusion protein of SEQ ID NO: 47 (insulin polypeptide SEQ ID NO: 16, linker SEQ ID NO: 25, canine IgGB Fc fragment with cNg-S) (Fc fusion)
chain: B1 chain with N139S
notes: Non-glycosylated homodimer made in HEK293 cells; also called cNg-NB139-S

IC50 [3]: 147 nM
IC50 [4]: 147 nM
B3: insulin-Fc fusion protein of SEQ ID NO: 51 (insulin polypeptide SEQ ID NO: 16, linker SEQ ID NO: 25, canine IgGB Fc fragment with des hinge D and cNg-K, i.e. … (Fc fusion)
chain: FVNQHLCGSDLVEALALVCGERGFFYTDPTGGGPRRGIVEQCCHSICSLYQLENYCNGGGGAGGGGCPKCPAPEMLGGPSVFIFPPKPKDTLLIARTPEVTCVVVDLDPEDPEVQISWFVDGKQMQTAKTQPREEQFKGTYRVVSVLPIGHQDWLKGKQFTCKVNNKALPSPIERTISKARGQAHQPSVYVLPPSREELSKNTVSLTCLIKDFFPPDIDVEWQSNGQQEPESKYRTTPPQLDEDGSYFLYSKLSVDKSRWQRGDTFICAVMHEALHNHYTQESLSHSPG
notes: Non-glycosylated homodimer made in HEK293 cells; also called cNg-NB138-K

IC50 [2]: > 5000 nM
B4: insulin-Fc fusion protein of SEQ ID NO: 45 (insulin polypeptide SEQ ID NO: 16, linker SEQ ID NO: 25, canine IgGD Fc fragment SEQ ID NO: 31) (Fc fusion)
chain: FVNQHLCGSDLVEALALVCGERGFFYTDPTGGGPRRGIVEQCCHSICSLYQLENYCNGGGGAGGGGCISPCPVPESLGGPSVFIFPPKPKDILRITRTPEITCVVLDLGREDPEVQISWFVDGKEVHTAKTQPREQQFNSTYRVVSVLPIEHQDWLTGKEFKCRVNHIGLPSPIERTISKARGQAHQPSVYVLPPSPKELSSSDTVTLTCLIKDFFPPEIDVEWQSNGQPEPESKYHTTAPQLDEDGSYFLYSKLSVDKSRWQQGDTFTCAVMHEALQNHYTDLSLSHSPG
notes: Homodimer made in HEK293 cells; the preparation was highly aggregated (12% homodimer)

IC50 [1]: 2730 nM
IC50 [2]: 2730 nM
B5: insulin-Fc fusion protein of SEQ ID NO: 33 (insulin polypeptide SEQ ID NO: 16, linker SEQ ID NO: 25, canine IgGA Fc fragment SEQ ID NO: 28) (Fc fusion)
chain: FVNQHLCGSDLVEALALVCGERGFFYTDPTGGGPRRGIVEQCCHSICSLYQLENYCNGGGGAGGGGRCTDTPPCPVPEPLGGPSVLIFPPKPKDILRITRTPEVTCVVLDLGREDPEVQISWFVDGKEVHTAKTQSREQQFNGTYRVVSVLPIEHQDWLTGKEFKCRVNHIDLPSPIERTISKARGRAHKPSVYVLPPSPKELSSSDTVSITCLIKDFYPPDIDVEWQSNGQQEPERKHRMTPPQLDEDGSYFLYSKLSVDKSRWQQGDPFTCAVMHETLQNHYTDLSLSHSPG
notes: Disulfide-linked homodimer made in HEK293 cells; the preparation was only 24% homodimer (highly aggregated)
